The values below are quoted from earlier work in paper PMC4479967 (Journal of molecular neuroscience : MN, 2015).

The conditions of this series: Src-dependent; ref Daulhac et al., 1999.

B1: CCK: cholecystokinin (peptide, UniProt P06307 21-115, looked up)
Cholecystokinin: QPVPPADPAGSGLQRAEEAPRRQLRVSQRTDGESRAHLGALLARYIQQARKAPSGRMSIVKNLQNLDPSHRISDRDYMGWMDFGRRSAEEYEYPS
For B1, the “Effect on ERK-1 and p85/p110-PI-3-K” value is reported as “causes activation”.
